Experimental data published in PMC1802567.
Where two headings read alike, the source gives them in different places.

Key:
p73β [1] = target: T1, p73β (UniProt O15350-2 1-499); assay: EMSA
T1 sequence: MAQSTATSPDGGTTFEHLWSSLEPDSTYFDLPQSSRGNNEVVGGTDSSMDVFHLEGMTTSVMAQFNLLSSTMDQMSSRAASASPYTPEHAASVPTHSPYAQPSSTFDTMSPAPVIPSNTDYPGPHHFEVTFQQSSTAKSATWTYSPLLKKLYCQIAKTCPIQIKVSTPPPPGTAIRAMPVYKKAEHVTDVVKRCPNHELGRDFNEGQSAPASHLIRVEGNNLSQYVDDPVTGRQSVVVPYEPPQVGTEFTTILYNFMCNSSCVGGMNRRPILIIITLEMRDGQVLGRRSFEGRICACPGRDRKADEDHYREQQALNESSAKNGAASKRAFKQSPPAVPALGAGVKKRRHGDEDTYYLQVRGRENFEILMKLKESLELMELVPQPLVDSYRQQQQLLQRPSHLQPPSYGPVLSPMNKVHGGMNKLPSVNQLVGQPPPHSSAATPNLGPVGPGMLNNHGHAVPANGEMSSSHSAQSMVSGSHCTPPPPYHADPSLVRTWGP

p53 [2] = target: T2, p53 (UniProt P04637 1-393); assay: EMSA
p53 [3] = target: T2, p53; assay: EMSA; remark: listed apart in the source
p73β [4] = target: T1, p73β; assay: EMSA; remark: listed apart in the source
p73β [5] = target: T1, p73β; assay: EMSA; remark: listed apart in the source
p73β(C262S) = target: T3, p73β(C262S) (UniProt O15350-2 1-499, C262S); assay: DNA immunobinding assay
T3 sequence: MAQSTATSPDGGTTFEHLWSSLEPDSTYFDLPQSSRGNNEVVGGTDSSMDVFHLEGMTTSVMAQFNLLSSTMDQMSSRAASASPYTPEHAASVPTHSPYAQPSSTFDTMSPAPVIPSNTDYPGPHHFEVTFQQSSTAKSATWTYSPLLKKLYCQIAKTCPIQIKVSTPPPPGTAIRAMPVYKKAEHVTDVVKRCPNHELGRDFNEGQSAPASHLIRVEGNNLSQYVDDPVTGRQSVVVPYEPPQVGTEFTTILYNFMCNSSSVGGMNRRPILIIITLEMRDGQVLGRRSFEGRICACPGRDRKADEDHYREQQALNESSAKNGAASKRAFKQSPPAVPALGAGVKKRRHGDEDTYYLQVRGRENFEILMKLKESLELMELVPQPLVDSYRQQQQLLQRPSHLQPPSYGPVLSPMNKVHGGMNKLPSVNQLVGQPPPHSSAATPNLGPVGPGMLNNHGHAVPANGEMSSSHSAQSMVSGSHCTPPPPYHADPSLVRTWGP

ΔNp63β = target: T4, ΔNp63β (UniProt Q9H3D4-4 1-461); assay: EMSA
T4 sequence: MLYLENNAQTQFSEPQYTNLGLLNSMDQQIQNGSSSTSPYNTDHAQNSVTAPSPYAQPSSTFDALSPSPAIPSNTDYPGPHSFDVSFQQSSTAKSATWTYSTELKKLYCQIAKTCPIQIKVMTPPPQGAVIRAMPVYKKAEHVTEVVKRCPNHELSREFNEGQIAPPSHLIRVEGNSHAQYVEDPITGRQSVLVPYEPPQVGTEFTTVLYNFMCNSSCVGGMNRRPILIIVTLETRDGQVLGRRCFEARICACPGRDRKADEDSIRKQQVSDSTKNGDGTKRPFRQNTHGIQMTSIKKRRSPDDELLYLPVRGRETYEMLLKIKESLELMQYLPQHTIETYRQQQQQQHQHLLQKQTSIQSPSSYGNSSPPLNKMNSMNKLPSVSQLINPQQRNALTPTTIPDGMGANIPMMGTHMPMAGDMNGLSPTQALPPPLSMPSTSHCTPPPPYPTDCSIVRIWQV

p73β [6] = target: T1, p73β; assay: EMSA; remark: listed apart in the source
p73α = target: T5, p73α (UniProt O15350 1-636); assay: EMSA
T5 sequence: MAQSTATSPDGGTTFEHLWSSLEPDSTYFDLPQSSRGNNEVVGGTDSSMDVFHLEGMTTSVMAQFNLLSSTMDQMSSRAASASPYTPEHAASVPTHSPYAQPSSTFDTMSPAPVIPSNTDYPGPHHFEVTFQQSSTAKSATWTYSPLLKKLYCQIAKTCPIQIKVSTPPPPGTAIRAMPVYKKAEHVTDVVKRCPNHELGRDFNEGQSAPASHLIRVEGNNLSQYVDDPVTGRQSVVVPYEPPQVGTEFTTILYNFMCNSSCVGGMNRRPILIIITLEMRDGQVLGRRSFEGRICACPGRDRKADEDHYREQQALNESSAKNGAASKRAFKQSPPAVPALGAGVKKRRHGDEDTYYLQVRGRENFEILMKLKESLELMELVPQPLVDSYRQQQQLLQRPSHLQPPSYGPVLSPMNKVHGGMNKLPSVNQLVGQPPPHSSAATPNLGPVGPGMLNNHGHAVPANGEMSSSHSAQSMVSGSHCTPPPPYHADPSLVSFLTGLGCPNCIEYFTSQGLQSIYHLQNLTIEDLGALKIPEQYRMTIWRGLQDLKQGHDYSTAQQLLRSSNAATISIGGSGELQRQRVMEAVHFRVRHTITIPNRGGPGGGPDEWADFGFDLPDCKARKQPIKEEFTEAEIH

T2 sequence (P04637 whole entry): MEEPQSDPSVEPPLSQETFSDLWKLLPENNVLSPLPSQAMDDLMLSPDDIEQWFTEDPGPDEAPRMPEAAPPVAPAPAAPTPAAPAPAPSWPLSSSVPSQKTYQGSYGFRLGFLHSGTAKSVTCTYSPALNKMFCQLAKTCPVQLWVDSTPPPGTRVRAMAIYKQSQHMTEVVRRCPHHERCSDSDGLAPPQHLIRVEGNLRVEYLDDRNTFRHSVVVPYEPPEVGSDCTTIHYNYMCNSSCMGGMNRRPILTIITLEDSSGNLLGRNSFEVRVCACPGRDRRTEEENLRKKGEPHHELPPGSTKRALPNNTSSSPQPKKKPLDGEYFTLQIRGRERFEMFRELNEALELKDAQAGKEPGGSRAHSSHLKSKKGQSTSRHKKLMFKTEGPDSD

B1: PPC (dsDNA)
DNA 1: AGCTAGTAGAGCTGGCATGTCCCGACTTGTTAGCGTGCTGCAGC
DNA 2: GCTGCAGCACGCTAACAAGTCGGGACATGCCAGCTCTACTAGCT
B1: binds (p73β [1]); binds (p53 [2]).

B2: PIG3 (dsDNA)
DNA 1: AGCTAGTAGAGCCAGCTTGCCCACCCATGCTCGCGTGCTGCAGC
DNA 2: GCTGCAGCACGCGAGCATGGGTGGGCAAGCTGGCTCTACTAGCT
B2: binds (p53 [3]); binds (p73β [4]).

B3: PUMA (dsDNA)
DNA 1: AGCTAGTAGAGCCTGCAAGTCCTGACTTGTCCGCGTGCTGCAGC
DNA 2: GCTGCAGCACGCGGACAAGTCAGGACTTGCAGGCTCTACTAGCT
B3: binds (p73β [5]).

B4: p21 5' site (dsDNA)
DNA 1: AGCTAGTAGAGCGAACATGTCCCAACATGTTGGCGTGCTGCAGC
DNA 2: GCTGCAGCACGCCAACATGTTGGGACATGTTCGCTCTACTAGCT
For B4, the binding signal (p73β(C262S)) was 1.5 fold over background, the binding result (p53 [3]) was “binds” and the binding result (ΔNp63β) was “binds”. B4: binds (p73β [6]); binds (p73α).
